Experimental findings from article PMC5575113 are described below.

Experiment [1] concerns the target GroES^7I25A1 (E. coli).
Experiment [2] has as its target GroES^7I25A1 (E. coli). The source holds these as a separate data set.
Another experiment concerns the target GroESI25A (E. coli) (UniProt P0A6F9). As to the kind of experiment: MST; cochaperonin labelled with DyLight 650; unlabelled GroEL or GroEL^SR in a serial dilution of 15 samples; 50 mM TrisCl pH 7.5, 100 mM KCl, 10 mM MgCl2, 1 mM EDTA, 2 mM ADP, 0.5 mg/mL BSA; 30 min incubation.
A further experiment has as its target GroESL27A (E. coli) (UniProt P0A6F9). Described as above.
Experiment [3] deals with GroES^7I25A1,2 (E. coli). Described as above.
Experiment [4] deals with GroES^7I25A1,3 (E. coli). The experiment is described as above.
The target of experiment [5] is GroES^7I25A1,4 (E. coli). Described as above.
Experiment [6] addresses GroES^7I25A_(1,4,6) (E. coli). Described as above.
The target in experiment [7] is GroES^7I25A_(1,4,7) (E. coli). Described as above.
In the next experiment the target is GroES^7I25D1,3 (E. coli). As to the kind of experiment: MST; cochaperonin labelled with DyLight 650, unlabelled GroEL or GroEL^SR titrated (serial dilution of 15 samples), 30 min incubation; 50 mM TrisCl pH 7.5, 100 mM KCl, 10 mM MgCl2, 1 mM EDTA, 2 mM ADP, 0.5 mg/mL BSA; Monolith NT115, 80% LED, 40% IR-laser.
The target of the next experiment is GroES^7I25D1,4 (E. coli). Described as above.
Experiment [8] concerns the target GroES^7I25D1,4,7 (E. coli). Described as above.
The target in experiment [9] is GroES^7I25A1 (E. coli). The source holds these as a separate data set.
In experiment [10] the target is GroES^7I25A1,2 (E. coli).
The target in experiment [11] is GroES^7I25A1,3 (E. coli).
The target of experiment [12] is GroES^7I25A1,4 (E. coli).
Experiment [13] concerns the target GroES^7I25A_(1,4,6) (E. coli).
In experiment [14] the target is GroES^7I25A_(1,4,7) (E. coli).
For experiment [15], the target named is GroES^7 (E. coli). As to the kind of experiment: MST; cochaperonin labelled with DyLight 650; unlabelled GroEL or GroEL^SR in a serial dilution of 15 samples; 50 mM TrisCl pH 7.5, 100 mM KCl, 10 mM MgCl2, 1 mM EDTA, 2 mM ADP, 0.5 mg/mL BSA; 30 min incubation.
Experiment [16] addresses GroES^7I25A1 (E. coli). The experiment is described as above.
The target of experiment [17] is GroES^7 (E. coli). As to the kind of experiment: MST; cochaperonin labelled with DyLight 650, unlabelled GroEL or GroEL^SR titrated (serial dilution of 15 samples), 30 min incubation; 50 mM TrisCl pH 7.5, 100 mM KCl, 10 mM MgCl2, 1 mM EDTA, 2 mM ADP, 0.5 mg/mL BSA; Monolith NT115, 80% LED, 40% IR-laser.
The target in experiment [18] is GroES^7I25A1,2 (E. coli). The description is as above.
For experiment [19], the target named is GroES^7I25A1,3 (E. coli). The description is as above.
The target in experiment [20] is GroES^7I25A1,4 (E. coli). Described as above.
The target of a further experiment is GroES^7I25D1 (E. coli). The experiment is described as above.
Another experiment has as its target GroES^7I25D1,2 (E. coli). The description is as above.

Where only a bound is given, the exact number is not on record here.

GroEL, sequence (P0A6F5 whole entry): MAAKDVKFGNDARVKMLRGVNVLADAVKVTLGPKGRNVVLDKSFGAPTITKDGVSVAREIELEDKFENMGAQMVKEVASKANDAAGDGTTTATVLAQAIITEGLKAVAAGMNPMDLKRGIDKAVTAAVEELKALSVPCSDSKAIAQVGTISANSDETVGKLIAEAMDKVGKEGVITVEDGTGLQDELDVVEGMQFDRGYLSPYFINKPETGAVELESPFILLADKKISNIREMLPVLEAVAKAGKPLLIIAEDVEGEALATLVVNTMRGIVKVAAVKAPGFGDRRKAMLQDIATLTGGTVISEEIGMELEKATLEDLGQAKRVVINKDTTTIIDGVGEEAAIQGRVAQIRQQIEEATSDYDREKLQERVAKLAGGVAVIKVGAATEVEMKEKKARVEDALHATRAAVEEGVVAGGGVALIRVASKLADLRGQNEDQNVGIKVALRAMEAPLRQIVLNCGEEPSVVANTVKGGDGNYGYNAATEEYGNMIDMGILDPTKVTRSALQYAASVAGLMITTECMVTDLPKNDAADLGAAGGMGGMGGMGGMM

For “GroEL (from UniProt P0A6F5 1-548) (natural protein)”, the ATPase activity of GroEL left in the presence of the variant with GroES^7I25A1 (E. coli) [1] was 53.2%. In the experiment with GroES^7I25A1 (E. coli) [2], the yield of GroEL-mediated MDH folding is 72%. For the same substance, the Kd (in general, the constant that tells how readily two partners part at equilibrium) with GroESI25A (E. coli) is more than 5000 nM; with GroESL27A (E. coli), more than 5000 nM; with GroES^7I25D1,3 (E. coli), 13.3 nM; with GroES^7I25D1,4 (E. coli), 9.58 nM; in experiment [8] it was 40 nM. The fold reduction of affinity against GroES^7 with GroES^7I25A1,2 (E. coli) [3] is 2 fold; with GroES^7I25A1,3 (E. coli) [4], 2 fold; with GroES^7I25A1,4 (E. coli) [5], 2 fold; in [6], more than 25 fold; in [7], more than 25 fold.
As to “GroEL^SR (GroEL R452A/E461A/S463A/V464A) (from UniProt P0A6F5 1-548) (natural protein)”, the inhibition of the ATPase of GroEL^SR with GroES^7I25A1 (E. coli) [9] is 80%; with GroES^7I25A1,2 (E. coli) [10], 50%; in the experiment with GroES^7I25A1,3 (E. coli) [11], 50%; with GroES^7I25A1,4 (E. coli) [12], 50%; in experiment [13] it was 20%; in experiment [14] it was 20%. The Kd was found to be 3.7 nM with GroES^7 (E. coli) [15]; 8.5 nM with GroES^7I25A1 (E. coli) [16]; 4.54 nM with GroES^7 (E. coli) [17]; 35 nM with GroES^7I25A1,2 (E. coli) [18]; 39.7 nM with GroES^7I25A1,3 (E. coli) [19]; 51.3 nM in the experiment with GroES^7I25A1,4 (E. coli) [20]. Besides, the Kd was 25.6 nM with GroES^7I25D1 (E. coli), 38.7 nM with GroES^7I25D1,2 (E. coli), 71.9 nM in the experiment with GroES^7I25D1,3 (E. coli) and 73.1 nM with GroES^7I25D1,4 (E. coli). Also, the fold reduction of affinity against GroES^7 with GroES^7I25A1,2 (E. coli) [3], in the experiment with GroES^7I25A1,3 (E. coli) [4] and with GroES^7I25A1,4 (E. coli) [5] was more than 10 fold throughout.
